Paper PMC9330529

Assays:
[1] = target: SARS-CoV-2 spike protein Delta (SARS-CoV-2 (Delta variant)) (UniProt P0DTC2); test: streptavidin bead fluorescence binding
[2] = target: SARS-CoV-2 spike protein Delta (SARS-CoV-2 (Delta variant)) (UniProt P0DTC2); test: flow cytometry on Ni-NTA beads

CGCAGCACCCAAGAACAAGGACTGCTTAGGATTGCGATAGGTTCGGAAAAAAGGCGGGTTCCTAGACTTGTACTCAGCCT [S1B6C3-A5-S2A2C1]
Kd [1]: 34.1 nM
Kd [2]: 32.6 nM
